From patent US20240148916A1, “BIVALENT FIBROBLAST ACTIVATION PROTEIN LIGANDS FOR TARGETED DELIVERY APPLICATIONS” (priority 2021, published 2024)
*1 amine or outer side, *2 acyl side, *3 side chain or, on linkers, in order; H or OH if unused. Where a SMILES comes first, the peptide text is derived from it. The star is where a group is joined. Fluorescein(5-Mal) = O=C1OC2(c3ccc(O)cc3Oc3cc(O)ccc32)c2ccc(N3C(=O)CC(*)C3=O)cc21; X1 = N#C[C@@H]1CC(F)(F)CN1C(=O)CNC(=O)c1ccnc2c(N*)cccc12; Suc = O=C(CCC(=O)[*:2])[*:1]

Tests used:
in vivo = experiment: in vivo; parameters: species or system mice; conditions: mouse; for tissue to tissue ratio at 1 h / tissue to tissue ratio at 4 h / tissue to tissue ratio at 17 h / tissue to tissue ratio at 24 h: female, athymic BALB/C nu/nu, iv, 250 nmol/kg, total radioactivity
Description: Upon thawing, HT-1080.hFAP positive cells and HT-1080.wt cells were kept in culture in DMEM medium supplemented with fetal bovine serum (10%, FBS) and Antibiotic-Antimycotic (1%, AA) at 37° C. and 5% CO2. For passaging, cells were detached using Trypsin-EDTA 0.05% when reaching 90% confluence and re-seeded at a dilution of 1:4. Cells were grown to 80% confluence and detached with Trypsin-EDTA 0.05%. Cells were re-suspended in cold HBSS medium to a final concentration of 5×10^7 cells/mL. Aliquots of 5×10^6 cells (100 μL of suspension) were injected subcutaneously in the flank of female athymic BALB/C nu/nu mice (6-8 weeks of age). HT-1080.hFAP tumour cells were xenografted in the right flank and HT-1080.wt tumour cells were xenografted in the left flank as described above and allowed to grow to an average volume of 1.2±0.2 mL. […] Mice were sacrificed 1 h, 4 h, 17 h and 24 h after the injection by CO2 asphyxiation and organs extracted, weighted and radioactivity measured with a Packard Cobra γ-counter. Values are expressed as % ID/g±SD (Figure C). Food and water were given ad libitum during that period.

hFAP [1] = target: T1, hFAP (Homo sapiens, UniProt Q12884); experiment: Gel filtration co-elution experiment on hFAP; type: binding; conditions: PD-10 column, hFAP 2 μM
T1 sequence (Q12884 1-760): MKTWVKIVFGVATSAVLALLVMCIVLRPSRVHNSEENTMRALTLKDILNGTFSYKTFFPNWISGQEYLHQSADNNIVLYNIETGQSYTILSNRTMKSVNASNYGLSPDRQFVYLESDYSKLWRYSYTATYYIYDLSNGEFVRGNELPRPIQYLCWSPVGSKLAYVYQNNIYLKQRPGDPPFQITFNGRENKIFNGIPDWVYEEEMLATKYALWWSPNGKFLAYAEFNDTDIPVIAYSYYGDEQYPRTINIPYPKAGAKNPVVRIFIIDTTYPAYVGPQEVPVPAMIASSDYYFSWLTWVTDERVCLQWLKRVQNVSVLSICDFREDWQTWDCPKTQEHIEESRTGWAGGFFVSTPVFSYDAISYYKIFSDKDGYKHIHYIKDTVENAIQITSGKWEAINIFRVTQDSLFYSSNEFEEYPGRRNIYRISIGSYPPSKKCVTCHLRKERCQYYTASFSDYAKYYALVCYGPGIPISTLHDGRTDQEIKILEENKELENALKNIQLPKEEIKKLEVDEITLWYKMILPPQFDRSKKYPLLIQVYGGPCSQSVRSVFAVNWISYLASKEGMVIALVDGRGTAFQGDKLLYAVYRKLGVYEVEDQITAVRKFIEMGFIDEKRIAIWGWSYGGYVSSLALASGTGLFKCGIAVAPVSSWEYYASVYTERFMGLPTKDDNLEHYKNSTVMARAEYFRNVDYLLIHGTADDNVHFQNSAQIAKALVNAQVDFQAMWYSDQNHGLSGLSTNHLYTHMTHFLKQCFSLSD
Description: The final solution was loaded on the column and flushed with running buffer. Fractions of the flow-through (200 μL) were collected in test tubes and the radioactivity measured with a Packard Cobra γ-counter. […] The final solution was loaded on the column and flushed with running buffer. Fractions of the flow-through (200 μL) were collected in test tubes and the radioactivity measured with a Packard Cobra γ-counter.

hFAP [2] = target: T1, hFAP; experiment: ELISA against immobilized hFAP; type: binding; conditions: biotinylated hFAP immobilized on StreptaWell
Description: Recombinant human FAP (1 μM, 5 mL) was biotinylated with Biotin-LC-NHS (100 eq.) by incubation at room temperature under gentle agitation in 50 mM HEPES, 100 mM NaCl buffer (pH=7.4). After 2 hours biotinylated hFAP was purified via PD-10 column and dialyzed overnight in HEPES buffer. The following day a StreptaWell™ (transparent 96-well) was incubated with biotinylated hFAP (100 nM, 100 μL/well) for 1 hour at room temperature and washed with PBS (3×, 200 μL/well). The protein was blocked by adding 4% Milk in PBS (200 μL/well, 30 min at RT) and then washed with PBS (3×, 200 μL/well). Immobilized hFAP was incubated for 30 minutes in the dark with serial dilutions of ESV6-Asp-Lys-Asp-Cys-Fluorescein and Bi-ESV6-Asp-Lys-Asp-Cys-Fluorescein (17), then washed with PBS (3×, 200 μL/well). A solution of rabbit αFITC antibody (1 μg/mL, Bio-Rad 4510-7804) in 2% Milk-PBS was added to each well (100 μL/well) and incubated for additional 30 minutes in the dark. The resulting complex was washed with PBS (3×, 200 μL/well) and incubated for additional 30 minutes of protein A-HRP (1 μg/mL in 2% Milk-PBS, 100 μL/well). Each well was washed with PBS 0.1% Tween (3×, 200 μL/well) and with PBS (3×, 200 μL/well). The substrate (TMB—3,3′,5,5′-Tetramethylbenzidine) was added (100 μL/well) and developed in the dark for 2 minutes. […] The absorbance was measured at 450 nm (ref 620-650 nm) with a TECAN spark

[3] = Tumour-to-organ ratios: HT-1080.hFAP
[4] = Tumour-to-organ ratios: Intestine

Compound | tissue to tissue ratio at 1 h (in vivo; Tumour-to-organ ratios: Blood) | tissue to tissue ratio at 4 h (in vivo; Tumour-to-organ ratios: Blood) | tissue to tissue ratio at 17 h (in vivo; Tumour-to-organ ratios: Blood) | tissue to tissue ratio at 24 h (in vivo; Tumour-to-organ ratios: Blood) | tissue to tissue ratio at 1 h (in vivo; [3]) | tissue to tissue ratio at 4 h (in vivo; [3]) | tissue to tissue ratio at 17 h (in vivo; [3]) | tissue to tissue ratio at 24 h (in vivo; [3]) | tissue to tissue ratio at 1 h (in vivo; Tumour-to-organ ratios: Heart) | tissue to tissue ratio at 4 h (in vivo; Tumour-to-organ ratios: Heart) | tissue to tissue ratio at 17 h (in vivo; Tumour-to-organ ratios: Heart) | tissue to tissue ratio at 24 h (in vivo; Tumour-to-organ ratios: Heart) | tissue to tissue ratio at 1 h (in vivo; [4]) | tissue to tissue ratio at 4 h (in vivo; [4]) | tissue to tissue ratio at 17 h (in vivo; [4]) | tissue to tissue ratio at 24 h (in vivo; [4]) | tissue to tissue ratio at 1 h (in vivo; Tumour-to-organ ratios: Kidney) | tissue to tissue ratio at 4 h (in vivo; Tumour-to-organ ratios: Kidney) | tissue to tissue ratio at 17 h (in vivo; Tumour-to-organ ratios: Kidney) | tissue to tissue ratio at 24 h (in vivo; Tumour-to-organ ratios: Kidney) | other results
N#C[C@@H]1CC(F)(F)CN1C(=O)CNC(=O)c1ccnc2c(NC(=O)CCC(=O)NCCNC(=O)CCC(C(=O)O)N3CCN(CC(=O)O)CCN(CC(=O)O)CCN(CC(=O)O)CC3)cccc12 (single isomer, unassigned) [^177Lu-ESV6-DOTAGA, metal not drawn] | 43.1 ± 17.2 | 113 ± 49.8 | 236 ± 190 | 855 ± 368 | 34.9 ± 2.79 | 26.8 ± 6.42 | 32.6 ± 17.4 | 13.3 ± 5.95 | 135 ± 19.8 | 208 ± 113 | 354 ± 231 | 169 ± 172 | 41 ± 41.8 | 39.8 ± 11.4 | 163 ± 94.9 | 77 ± 58.6 | 9.16 ± 0.88 | 8.25 ± 1.45 | 5.72 ± 2.04 | 11.9 ± 16 | tissue to tissue ratio at 1 h (in vivo; Tumour-to-organ ratios: Liver): 5.89 ± 0.82; tissue to tissue ratio at 4 h (in vivo; Tumour-to-organ ratios: Liver): 21.6 ± 2.99; tissue to tissue ratio at 17 h (in vivo; Tumour-to-organ ratios: Liver): 40.3 ± 13.3; tissue to tissue ratio at 24 h (in vivo; Tumour-to-organ ratios: Liver): 30.4 ± 6.7; tissue to tissue ratio at 1 h (in vivo; Tumour-to-organ ratios: Lung): 37.9 ± 2.59; tissue to tissue ratio at 4 h (in vivo; Tumour-to-organ ratios: Lung): 90.3 ± 29.3; tissue to tissue ratio at 17 h (in vivo; Tumour-to-organ ratios: Lung): 150 ± 88.5; tissue to tissue ratio at 24 h (in vivo; Tumour-to-organ ratios: Lung): 140 ± 83; tissue to tissue ratio at 1 h (in vivo; Tumour-to-organ ratios: Spleen): 109 ± 8.98; tissue to tissue ratio at 4 h (in vivo; Tumour-to-organ ratios: Spleen): 169 ± 67.8; tissue to tissue ratio at 17 h (in vivo; Tumour-to-organ ratios: Spleen): 200 ± 45.7; tissue to tissue ratio at 24 h (in vivo; Tumour-to-organ ratios: Spleen): 103 ± 66.7; tissue to tissue ratio at 1 h (in vivo; Tumour-to-organ ratios: Tail): 31.2 ± 8.39; tissue to tissue ratio at 4 h (in vivo; Tumour-to-organ ratios: Tail): 10.4 ± 7.6; tissue to tissue ratio at 17 h (in vivo; Tumour-to-organ ratios: Tail): 4.74 ± 5.11; tissue to tissue ratio at 24 h (in vivo; Tumour-to-organ ratios: Tail): 8.77 ± 2.3; Complex formation with hFAP (co-elution) (hFAP [1]): form a stable complex
N#C[C@@H]1CC(F)(F)CN1C(=O)CNC(=O)c1ccnc2c(NC(=O)CCC(=O)N[C@@H](CC(=O)O)C(=O)N[C@@H](CCCCN)C(=O)N[C@@H](CC(=O)O)C(=O)N[C@@H](CSC3CC(=O)N(c4ccc5c(c4)C(=O)OC54c5ccc(O)cc5Oc5cc(O)ccc54)C3=O)C(=O)O)cccc12 (stereo partly drawn) [ESV6-Asp-Lys-Asp-Cys-Fluorescein] ({X1-Suc}-DKDC(Fluorescein(5-Mal))-OH) | – | – | – | – | – | – | – | – | – | – | – | – | – | – | – | – | – | – | – | – | Kd (hFAP [2]): 32.3 nM
N#C[C@@H]1CC(F)(F)CN1C(=O)CNC(=O)c1ccnc2c(NC(=O)CCC(=O)NCCCC[C@H](NC(=O)CCC(=O)Nc3cccc4c(C(=O)NCC(=O)N5CC(F)(F)C[C@H]5C#N)ccnc34)C(=O)NCCNC(=O)CCC(C(=O)O)N3CCN(CC(=O)O)CCN(CC(=O)O)CCN(CC(=O)O)CC3)cccc12 (stereo partly shown) [^177Lu-Bi-ESV6-DOTAGA, metal not drawn] | 32.8 ± 8.97 | 62.8 ± 11.2 | 95.4 ± 19.1 | 178 ± 57.6 | 23 ± 8.09 | 25 ± 1.27 | 27.2 ± 11.3 | 29.7 ± 13.8 | 52.2 ± 10.8 | 125 ± 17.1 | 148 ± 12.9 | 201 ± 59.5 | 59.6 ± 6.48 | 82.4 ± 31.2 | 111 ± 32.1 | 104 ± 60.6 | 7.19 ± 2.29 | 8.61 ± 0.84 | 8.4 ± 1.31 | 9.9 ± 2.38 | tissue to tissue ratio at 1 h (in vivo; Tumour-to-organ ratios: Liver): 18.8 ± 5.31; tissue to tissue ratio at 4 h (in vivo; Tumour-to-organ ratios: Liver): 29.9 ± 4.12; tissue to tissue ratio at 17 h (in vivo; Tumour-to-organ ratios: Liver): 27.9 ± 2.25; tissue to tissue ratio at 24 h (in vivo; Tumour-to-organ ratios: Liver): 30.6 ± 8; tissue to tissue ratio at 1 h (in vivo; Tumour-to-organ ratios: Lung): 19.5 ± 4.09; tissue to tissue ratio at 4 h (in vivo; Tumour-to-organ ratios: Lung): 65.5 ± 10.5; tissue to tissue ratio at 17 h (in vivo; Tumour-to-organ ratios: Lung): 124 ± 74.7; tissue to tissue ratio at 24 h (in vivo; Tumour-to-organ ratios: Lung): 98.7 ± 18.9; tissue to tissue ratio at 1 h (in vivo; Tumour-to-organ ratios: Spleen): 42.1 ± 17.7; tissue to tissue ratio at 4 h (in vivo; Tumour-to-organ ratios: Spleen): 73.8 ± 10.3; tissue to tissue ratio at 17 h (in vivo; Tumour-to-organ ratios: Spleen): 68.2 ± 11.7; tissue to tissue ratio at 24 h (in vivo; Tumour-to-organ ratios: Spleen): 93.6 ± 64.5; tissue to tissue ratio at 1 h (in vivo; Tumour-to-organ ratios: Tail): 10.4 ± 1.72; tissue to tissue ratio at 4 h (in vivo; Tumour-to-organ ratios: Tail): 9.68 ± 4.14; tissue to tissue ratio at 17 h (in vivo; Tumour-to-organ ratios: Tail): 14 ± 8.08; tissue to tissue ratio at 24 h (in vivo; Tumour-to-organ ratios: Tail): 15.5 ± 7.98; Kidney uptake (in vivo): transient and becomes negligible 24 hours after injection; Complex formation with hFAP (co-elution) (hFAP [1]): form a stable complex
